The data set is described as follows: background-corrected fluorescence of 3'-dye-labeled ssDNA relative to brightest sequence (3'-GCGCG) (fraction); higher = brighter dye fluorescence (less quenching). Summed up:
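Arrays of single-stranded DNA, with a 3' Cy3 or Cy5 dye beside each of 1024 permuted pentamers, were built on glass slides through light-directed phosphoramidite synthesis. They were washed for 2 h at r.t. in acetonitrile and scanned at 532 or 635 nm, once before and once after overnight ethylenediamine/ethanol deprotection. Fluorescence is reported after subtracting unlabeled-oligo background and normalizing to the brightest sequence. Averages cover 10 features per array and at least 3 syntheses.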

Data on 29 sequences can be found in the supplement of paper PMC9428881.

± gives the standard error.

For the sequence “TTTTTTGCTGATCATCATGATTTTTTTTTTTTTTTACGGC [CGGCA]”, the background-corrected fluorescence was found to be 0.594 ± 0.029 (dye: Cy3 (3' terminal)) and 0.433 ± 0.049 (dye: Cy5 (3' terminal)).

In the case of “TTTTTTGATGATCAGCATCATTTTTTTTTTTTTTTCCGTG [GTGCC]”, the background-corrected fluorescence was 0.533 ± 0.0058 (dye: Cy3 (3' terminal)) and 0.435 ± 0.029 (dye: Cy5 (3' terminal)).

In the case of “TTTTTTCAGCATCATGATCATTTTTTTTTTTTTTTGTGCG [GCGTG]”, the background-corrected fluorescence runs as follows: (dye: Cy3 (3' terminal)) 0.568 ± 0.056; (dye: Cy5 (3' terminal)) 0.499 ± 0.028.

Consider “TTTTTGCATCAGCAGCATGATTTTTTTTTTTTTTTTGTTC [CTTGT]”, for which the background-corrected fluorescence is 0.433 ± 0.0082 (dye: Cy3 (3' terminal)) and 0.31 ± 0.025 (dye: Cy5 (3' terminal)).

Regarding “TTTTTTGCTGATGATGCTGCTTTTTTTTTTTTTTTACCAA [AACCA]”, the background-corrected fluorescence (dye: Cy3 (3' terminal)) was found to be 0.485 ± 0.029 and the background-corrected fluorescence (dye: Cy5 (3' terminal)) amounted to 0.402 ± 0.022.

For the sequence “TTTTTTCATGCTGATCATGATTTTTTTTTTTTTTTGACGC [CGCAG]”, the background-corrected fluorescence (dye: Cy3 (3' terminal)) was 0.577 ± 0.062 and the background-corrected fluorescence (dye: Cy5 (3' terminal)) is 0.462 ± 0.065.

For the sequence “TTTTTTCATCATGCTGATCATTTTTTTTTTTTTTTGGACG [GCAGG]”, the background-corrected fluorescence came to 0.567 ± 0.016 (dye: Cy3 (3' terminal)) and 0.455 ± 0.019 (dye: Cy5 (3' terminal)).

“TTTTTTGATGAGCATGAGCATTTTTTTTTTTTTTTCCTCT [TCTCC]”: the background-corrected fluorescence runs as follows: (dye: Cy3 (3' terminal)) 0.431 ± 0.012; (dye: Cy5 (3' terminal)) 0.312 ± 0.026.

With “TTTTTTGATCATGATGAGCATTTTTTTTTTTTTTTCGCCT [TCCGC]”, the background-corrected fluorescence is, setting by setting: (dye: Cy3 (3' terminal)) 0.488 ± 0.028; (dye: Cy5 (3' terminal)) 0.369 ± 0.03.

On to “TTTTTTGATCATGCGCATGATTTTTTTTTTTTTTTCGATC [CTAGC]”, for which the background-corrected fluorescence reads like this: (dye: Cy3 (3' terminal)) 0.457 ± 0.018; (dye: Cy5 (3' terminal)) 0.354 ± 0.027.

The sequence “TTTTTTGAGCATGATGAGCATTTTTTTTTTTTTTTCTCCT [TCCTC]” showed a background-corrected fluorescence (dye: Cy3 (3' terminal)) of 0.41 ± 0.018 and a background-corrected fluorescence (dye: Cy5 (3' terminal)) of 0.33 ± 0.032.

As for “TTTTTGCAGCATGATGCTCATTTTTTTTTTTTTTTTTCAG [GACTT]”, the background-corrected fluorescence is, setting by setting: (dye: Cy3 (3' terminal)) 0.506 ± 0.032; (dye: Cy5 (3' terminal)) 0.358 ± 0.027.

As for “TTTTTTGATGCTGCGCATGCTTTTTTTTTTTTTTTCAATA [ATAAC]”, the background-corrected fluorescence reads like this: (dye: Cy3 (3' terminal)) 0.574 ± 0.023; (dye: Cy5 (3' terminal)) 0.422 ± 0.042.

In the case of “TTTTTGCATGATCAGCATGATTTTTTTTTTTTTTTTCGTC [CTGCT]”, the background-corrected fluorescence reads like this: (dye: Cy3 (3' terminal)) 0.467 ± 0.034; (dye: Cy5 (3' terminal)) 0.352 ± 0.03.

For the sequence “TTTTTTGATGCTGCTGATGCTTTTTTTTTTTTTTTCAACA [ACAAC]”, the background-corrected fluorescence runs as follows: (dye: Cy3 (3' terminal)) 0.489 ± 0.0058; (dye: Cy5 (3' terminal)) 0.368 ± 0.022.

Turning to “TTTTTTGCGCAGCAGCATGCTTTTTTTTTTTTTTTATTTA”, the background-corrected fluorescence (dye: Cy3 (3' terminal)) is 0.545 ± 0.017 and the background-corrected fluorescence (dye: Cy5 (3' terminal)) came out at 0.432 ± 0.031.

Sequence “TTTTTTGATCATGATGCTGATTTTTTTTTTTTTTTCGCAC [CACGC]” had a background-corrected fluorescence (dye: Cy3 (3' terminal)) of 0.435 ± 0.025 and a background-corrected fluorescence (dye: Cy5 (3' terminal)) of 0.342 ± 0.06.

For “TTTTTTGATCATGATCATCATTTTTTTTTTTTTTTCGCGG [GGCGC]”, the background-corrected fluorescence runs as follows: (dye: Cy3 (3' terminal)) 0.814 ± 0.019; (dye: Cy5 (3' terminal)) 0.793 ± 0.047.

With “TTTTTTCATGCTGCGCATCATTTTTTTTTTTTTTTGAATG [GTAAG]”, the background-corrected fluorescence worked out at 0.489 ± 0.022 (dye: Cy3 (3' terminal)) and 0.367 ± 0.029 (dye: Cy5 (3' terminal)).

Consider “TTTTTTGCTGCTGCTGAGCATTTTTTTTTTTTTTTAAACT [TCAAA]”, for which the background-corrected fluorescence amounted to 0.496 ± 0.0053 (dye: Cy3 (3' terminal)) and 0.349 ± 0.028 (dye: Cy5 (3' terminal)).

With “TTTTTTGATGCGCATCATGATTTTTTTTTTTTTTTCATGC [CGTAC]”, the background-corrected fluorescence is, setting by setting: (dye: Cy3 (3' terminal)) 0.536 ± 0.028; (dye: Cy5 (3' terminal)) 0.395 ± 0.026.

Take “TTTTTGCATGAGCATCATGATTTTTTTTTTTTTTTTCTGC [CGTCT]”: the background-corrected fluorescence amounted to 0.491 ± 0.029 (dye: Cy3 (3' terminal)) and 0.368 ± 0.024 (dye: Cy5 (3' terminal)).

For the sequence “TTTTTTGAGCATCATCAGCATTTTTTTTTTTTTTTCTGGT [TGGTC]”, the background-corrected fluorescence reads like this: (dye: Cy3 (3' terminal)) 0.653 ± 0.018; (dye: Cy5 (3' terminal)) 0.557 ± 0.035.

In the case of “TTTTTGCATCAGCAGCATCATTTTTTTTTTTTTTTTGTTG [GTTGT]”, the background-corrected fluorescence (dye: Cy3 (3' terminal)) came out at 0.515 ± 0.027 and the background-corrected fluorescence (dye: Cy5 (3' terminal)) came to 0.373 ± 0.017.

For the sequence “TTTTTGCAGCATGCTCAGCATTTTTTTTTTTTTTTTTAGT [TGATT]”, the background-corrected fluorescence stood at 0.619 ± 0.012 (dye: Cy3 (3' terminal)) and 0.5 ± 0.03 (dye: Cy5 (3' terminal)).

For “TTTTTTGCTGATGAGCATGATTTTTTTTTTTTTTTACCTC [CTCCA]”, the background-corrected fluorescence runs as follows: (dye: Cy3 (3' terminal)) 0.438 ± 0.0039; (dye: Cy5 (3' terminal)) 0.271 ± 0.016.

For the sequence “TTTTTGCATGATGCTGCTCATTTTTTTTTTTTTTTTCAAG [GAACT]”, the background-corrected fluorescence (dye: Cy3 (3' terminal)) stood at 0.515 ± 0.054 and the background-corrected fluorescence (dye: Cy5 (3' terminal)) turned out to be 0.39 ± 0.042.

As to “TTTTTTGCGCAGCATGCTCATTTTTTTTTTTTTTTATTAG [GATTA]”, the background-corrected fluorescence reads like this: (dye: Cy3 (3' terminal)) 0.552 ± 0.011; (dye: Cy5 (3' terminal)) 0.421 ± 0.058.

Regarding “TTTTTTGATGCTCATGCTGATTTTTTTTTTTTTTTCAGAC”, the background-corrected fluorescence is, setting by setting: (dye: Cy3 (3' terminal)) 0.451 ± 0.024; (dye: Cy5 (3' terminal)) 0.372 ± 0.017.
